Experimental data from the supplement of paper PMC5998384.

Experiments:
HeLa Kyoto [1] = assay: melting temperature (median over replicates), in situ; higher = more thermally stable
HeLa Kyoto [2] = assay: solubility change mitosis vs G1/S (difference of NP-40 vs SDS log2 ratios) (log2 ratio difference); higher = more soluble in mitosis
HeLa Kyoto [3] = assay: solubility in G1/S (NP-40 vs SDS abundance) (log2 ratio); higher = more soluble; conditions: cell cycle stage: G1/S
HeLa Kyoto [4] = assay: thermal stability score vs G1/S (z-score of summed log2 fold changes over temperatures); higher = more thermally stable than in G1/S
[5] = cell cycle stage: early G1 (4.5 h after nocodazole release)
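Wherever melting temperature (median over replicates), in situ is given: HeLa Kyoto cells synchronized by double thymidine or nocodazole block, proteins quantified by TMT10plex mass spectrometry, three independent biological replicates.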
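Wherever solubility change mitosis vs G1/S (difference of NP-40 vs SDS log2 ratios) is given: synchronized HeLa Kyoto cells (double thymidine block for G1/S, nocodazole release for mitosis), protein amounts in NP-40 versus SDS lysates quantified by mass spectrometry, three biological replicates.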
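Wherever solubility in G1/S (NP-40 vs SDS abundance) is given: HeLa Kyoto cells arrested at G1/S by double thymidine block, proteins quantified by TMT10plex mass spectrometry in mild NP-40 versus SDS extracts, three biological replicates.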
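Wherever thermal stability score vs G1/S (z-score of summed log2 fold changes over temperatures) is given: synchronized HeLa Kyoto cells, proteins quantified by TMT10plex mass spectrometry, three biological replicates, mitosis taken 0.5 h after nocodazole release, G1/S directly after double thymidine block.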

| Substance | melting temperature (HeLa Kyoto [1]; cell cycle stage: G1/S) [°C] | melting temperature (HeLa Kyoto [1]; cell cycle stage: mitosis) [°C] | solubility change mitosis (log2) (HeLa Kyoto [2]) | solubility in G1/S (log2) (HeLa Kyoto [3]) | thermal stability score (HeLa Kyoto [4]; [5]) | thermal stability score (HeLa Kyoto [4]; cell cycle stage: mitosis) |
| --- | --- | --- | --- | --- | --- | --- |
| MAAPGSARRPLLLLLLLLLLGLMHCASAAMFMVKNGNGTACIMANFSAAFSVNYDTKSGPKNMTFDLPSDATVVLNRSSCGKENTSDPSLVIAFGRGHTLTLNFTRNATRYSVQLMSFVYNLSDTHLFPNASSKEIKTVESITDIRADIDKKYRCVSGTQVHMNNVTVTLHDATIQAYLSNSSFSRGETRCEQDRPSPTTAPPAPPSPSPSPVPKSPSVDKYNVSGTNGTCLLASMGLQLNLTYERKDNTTVTRLLNINPNKTSASGSCGAHLVTLELHSEGTTVLLFQFGMNASSSRFFLQGIQLNTILPDARDPAFKAANGSLRALQATVGNSYKCNAEEHVRVTKAFSVNIFKVWVQAFKVEGGQFGSVEECLLDENSMLIPIAVGGALAGLVLIVLIAYLVGRKRSHAGYQTI [LAMP1] | 59.9 | 61.1 | 0.0596 | 0.0646 | -2.35 | -3.71 |
| MVLESTMVCVDNSEYMRNGDFLPTRLQAQQDAVNIVCHSKTRSNPENNVGLITLANDCEVLTTLTPDTGRILSKLHTVQPKGKITFCTGIRVAHLALKHRQGKNHKMRIIAFVGSPVEDNEKDLVKLAKRLKKEKVNVDIINFGEEEVNTEKLTAFVNTLNGKDGTGSHLVTVPPGPSLADALISSPILAGEGGAMLGLGASDFEFGVDPSADPELALALRVSMEEQRQRQEEEARRAAAASAAEAGIATTGTEDSDDALLKMTISQQEFGRTGLPDLSSMTEEEQIAYAMQMSLQGAEFGQAESADIDASSAMDTSEPAKEEDDYDVMQDPEFLQSVLENLPGVDPNNEAIRNAMGSLASQATKDGKKDKKEEDKK [PSMD4] | 53.3 | 53.9 | -0.0985 | 0.287 | -0.808 | -1.22 |
| MPNIVLFSGSSHQDLSQRVADRLGLELGKVVTKKFSNQETSVEIGESVRGEDVYIIQSGCGEINDNLMELLIMINACKIASSSRVTAVIPCFPYARQDKKDKSRAPISAKLVANMLSVAGADHIITMDLHASQIQGFFDIPVDNLYAEPAVLQWIRENIAEWKNCIIVSPDAGGAKRVTSIADRLNVEFALIHKERKKANEVDRMVLVGDVKDRVAILVDDMADTCGTICHAADKLLSAGATKVYAILTHGIFSGPAISRINNAAFEAVVVTNTIPQEDKMKHCTKIQVIDISMILAEAIRRTHNGESVSYLFSHVPL [PRPS2] | 55.1 | 55.9 | -0.112 | -0.014 | 3.16 | 2.12 |
| MPELAVQKVVVHPLVLLSVVDHFNRIGKVGNQKRVVGVLLGSWQKKVLDVSNSFAVPFDEDDKDDSVWFLDHDYLENMYGMFKKVNARERIVGWYHTGPKLHKNDIAINELMKRYCPNSVLVIIDVKPKDLGLPTEAYISVEEVHDDGTPTSKTFEHVTSEIGAEEAEEVGVEHLLRDIKDTTVGTLSQRITNQVHGLKGLNSKLLDIRSYLEKVATGKLPINHQIIYQLQDVFNLLPDVSLQEFVKAFYLKTNDQMVVVYLASLIRSVVALHNLINNKIANRDAEKKEGQEKEESKKDRKEDKEKDKDKEKSDVKKEEKKEKK [PSMD7] | 53.9 | 51.6 | 0.00337 | 0.121 | -0.335 | -1.17 |
| MDSKESLTPGREENPSSVLAQERGDVMDFYKTLRGGATVKVSASSPSLAVASQSDSKQRRLLVDFPKGSVSNAQQPDLSKAVSLSMGLYMGETETKVMGNDLGFPQQGQISLSSGETDLKLLEESIANLNRSTSVPENPKSSASTAVSAAPTEKEFPKTHSDVSSEQQHLKGQTGTNGGNVKLYTTDQSTFDILQDLEFSSGSPGKETNESPWRSDLLIDENCLLSPLAGEDDSFLLEGNSNEDCKPLILPDTKPKIKDNGDLVLSSPSNVTLPQVKTEKEDFIELCTPGVIKQEKLGTVYCQASFPGANIIGNKMSAISVHGVSTSGGQMYHYDMNTASLSQQQDQKPIFNVIPPIPVGSENWNRCQGSGDDNLTSLGTLNFPGRTVFSNGYSSPSMRPDVSSPPSSSSTATTGPPPKLCLVCSDEASGCHYGVLTCGSCKVFFKRAVEGQHNYLCAGRNDCIIDKIRRKNCPACRYRKCLQAGMNLEARKTKKKIKGIQQATTGVSQETSENPGNKTIVPATLPQLTPTLVSLLEVIEPEVLYAGYDSSVPDSTWRIMTTLNMLGGRQVIAAVKWAKAIPGFRNLHLDDQMTLLQYSWMFLMAFALGWRSYRQSSANLLCFAPDLIINEQRMTLPCMYDQCKHMLYVSSELHRLQVSYEEYLCMKTLLLLSSVPKDGLKSQELFDEIRMTYIKELGKAIVKREGNSSQNWQRFYQLTKLLDSMHEVVENLLNYCFQTFLDKTMSIEFPEMLAEIITNQIPKYSNGNIKKLLFHQK [NR3C1] | 48.2 | 49.3 | -0.168 | 0.0188 | 0.508 | 1.98 |
| MAAPEERDLTQEQTEKLLQFQDLTGIESMDQCRHTLEQHNWNIEAAVQDRLNEQEGVPSVFNPPPSRPLQVNTADHRIYSYVVSRPQPRGLLGWGYYLIMLPFRFTYYTILDIFRFALRFIRPDPRSRVTDPVGDIVSFMHSFEEKYGRAHPVFYQGTYSQALNDAKRELRFLLVYLHGDDHQDSDEFCRNTLCAPEVISLINTRMLFWACSTNKPEGYRVSQALRENTYPFLAMIMLKDRRMTVVGRLEGLIQPDDLINQLTFIMDANQTYLVSERLEREERNQTQVLRQQQDEAYLASLRADQEKERKKREERERKRRKEEEVQQQKLAEERRRQNLQEEKERKLECLPPEPSPDDPESVKIIFKLPNDSRVERRFHFSQSLTVIHDFLFSLKESPEKFQIEANFPRRVLPCIPSEEWPNPPTLQEAGLSHTEVLFVQDLTDE [FAF2] | 49.9 | 50.4 | -0.13 | -0.0258 | 2.25 | 3.16 |
| VPS13C | 52.7 | 53.1 | -0.127 | -0.229 | -0.0535 | -0.882 |
| MTKAGSKGGNLRDKLDGNELDLSLSDLNEVPVKELAALPKATILDLSCNKLTTLPSDFCGLTHLVKLDLSKNKLQQLPADFGRLVNLQHLDLLNNKLVTLPVSFAQLKNLKWLDLKDNPLDPVLAKVAGDCLDEKQCKQCANKVLQHMKAVQADQERERQRRLEVEREAEKKREAKQRAKEAQERELRKREKAEEKERRRKEYDALKAAKREQEKKPKKEANQAPKSKSGSRPRKPPPRKHTRSWAVLKLLLLLLLFGVAGGLVACRVTELQQQPLCTSVNTIYDNAVQGLRRHEILQWVLQTDSQQ [LRRC59] | 56.7 | 54 | 0.236 | 0.751 | 2.96 | -1.3 |
| MDRMTEDALRLNLLKRSLDPADERDDVLAKRLKMEGHEAMERLKMLALLKRKDLANLEVPHELPTKQDGSGVKGYEEKLNGNLRPHGDNRTAGRPGKENINDEPVDMSARRSEPERGRLTPSPDIIVLSDNEASSPRSSSRMEERLKAANLEMFKGKGIEERQQLIKQLRDELRLEEARLVLLKKLRQSQLQKENVVQKTPVVQNAASIVQPSPAHVGQQGLSKLPSRPGAQGVEPQNLRTLQGHSVIRSATNTTLPHMLMSQRVIAPNPAQLQGQRGPPKPGLVRTTTPNMNPAINYQPQSSSSVPCQRTTSSAIYMNLASHIQPGTVNRVSSPLPSPSAMTDAANSQAAAKLALRKQLEKTLLEIPPPKPPAPLLHFLPSAANSEFIYMVGLEEVVQSVIDSQGKSCASLLRVEPFVCAQCRTDFTPHWKQEKNGKILCEQCMTSNQKKALKAEHTNRLKNAFVKALQQEQEIEQRLQQQAALSPTTAPAVSSVSKQETIMRHHTLRQAPQPQSSLQRGIPTSARSMLSNFAQAPQLSVPGGLLGMPGVNIAYLNTGIGGHKGPSLADRQREYLLDMIPPRSISQSISGQK [GATAD2B] | 49 | 50.6 | 0.158 | 0.413 | 1.06 | 3.82 |
| MIGCGACEPKVKMAGGQAAAALPTWKMAARRSLSARGRGILQAAAGRLLPLLLLSCCCGAGGCAAVGENEETVIIGLRLEDTNDVSFMEGGALRVSERTRVKLRVYGQNINNETWSRIAFTEHERRRHSPGERGLGGPAPPEPDSGPQRCGIRTSDIIILPHIILNRRTSGIIEIEIKPLRKMEKSKSYYLCTSLSTPALGAGGSGSTGGAVGGKGGSGVAGLPPPPWAETTWIYHDGEDTKMIVGEEKKFLLPFWLQVIFISLLLCLSGMFSGLNLGLMALDPMELRIVQNCGTEKEKNYAKRIEPVRRQGNYLLCSLLLGNVLVNTTLTILLDDIAGSGLVAVVVSTIGIVIFGEIVPQAICSRHGLAVGANTIFLTKFFMMMTFPASYPVSKLLDCVLGQEIGTVYNREKLLEMLRVTDPYNDLVKEELNIIQGALELRTKTVEDVMTPLRDCFMITGEAILDFNTMSEIMESGYTRIPVFEGERSNIVDLLFVKDLAFVDPDDCTPLKTITKFYNHPLHFVFNDTKLDAMLEEFKKGKSHLAIVQRVNNEGEGDPFYEVLGIVTLEDVIEEIIKSEILDETDLYTDNRTKKKVAHRERKQDFSAFKQTDSEMKVKISPQLLLAMHRFLATEVEAFSPSQMSEKILLRLLKHPNVIQELKYDEKNKKAPEYYLYQRNKPVDYFVLILQGKVEVEAGKEGMKFEASAFSYYGVMALTASPVPLSLSRTFVVSRTELLAAGSPGENKSPPRPCGLNHSDSLSRSDRIDAVTPTLGSSNNQLNSSLLQVYIPDYSVRALSDLQFVKISRQQYQNALMASRMDKTPQSSDSENTKIELTLTELHDGLPDETANLLNEQNCVTHSKANHSLHNEGAI [CNNM2] | – | 51.1 | 0.346 | -0.386 | -1.21 | -1.62 |
| GOLGA4 | 48.5 | 49.2 | -0.133 | 0.348 | 0.946 | 2.53 |
| PRRC2C | 55.6 | 55.2 | 0.111 | -0.328 | -0.644 | -2.2 |
| MAEHPPLLDTTQILSSDISLLSAPIVSADGTQQVILVQVNPGEAFTIRREDGQFQCITGPAQVPMMSPNGSVPPIYVPPGYAPQVIEDNGVRRVVVVPQAPEFHPGSHTVLHRSPHPPLPGFIPVPTMMPPPPRHMYSPVTGAGDMTTQYMPQYQSSQVYGDVDAHSTHGRSNFRDERSSKTYERLQKKLKDRQGTQKDKMSSPPSSPQKCPSPINEHNGLIKGQIAGGINTGSAKIKSGKGKGGTQVDTEIEEKDEETKAFEALLSNIVKPVASDIQARTVVLTWSPPSSLINGETDESSVPELYGYEVLISSTGKDGKYKSVYVGEETNITLNDLKPAMDYHAKVQAEYNSIKGTPSEAEIFTTLSCEPDIPNPPRIANRTKNSLTLQWKAPSDNGSKIQNFVLEWDEGKGNGEFCQCYMGSQKQFKITKLSPAMGCKFRLSARNDYGTSGFSEEVLYYTSGCAPSMPASPVLTKAGITWLSLQWSKPSGTPSDEGISYILEMEEETSGYGFKPKYDGEDLAYTVKNLRRSTKYKFKVIAYNSEGKSNPSEVVEFTTCPDKPGIPVKPSVKGKIHSHSFKITWDPPKDNGGATINKYVVEMAEGSNGNKWEMIYSGATREHLCDRLNPGCFYRLRVYCISDGGQSAVSESLLVQTPAVPPGPCLPPRLQGRPKAKEIQLRWGPPLVDGGSPISCYSVEMSPIEKDEPREVYQGSEVECTVSSLLPGKTYSFRLRAANKMGFGPFSEKCDITTAPGPPDQCKPPQVTCRSATCAQVNWEVPLSNGTDVTEYRLEWGGVEGSMQICYCGPGLSYEIKGLSPATTYYCRVQALSVVGAGPFSEVVACVTPPSVPGIVTCLQEISDDEIENPHYSPSTCLAISWEKPCDHGSEILAYSIDFGDKQSLTVGKVTSYIINNLQPDTTYRIRIQALNSLGAGPFSHMIKLKTKPLPPDPPRLECVAFSHQNLKLKWGEGTPKTLSTDSIQYHLQMEDKNGRFVSLYRGPCHTYKVQRLNESTSYKFCIQACNEAGEGPLSQEYIFTTPKSVPAALKAPKIEKVNDHICEITWECLQPMKGDPVIYSLQVMLGKDSEFKQIYKGPDSSFRYSSLQLNCEYRFRVCAIRQCQDSLGHQDLVGPYSTTVLFISQRTEPPASTNRDTVESTRTRRALSDEQCAAVILVLFAFFSILIAFIIQYFVIK [FNDC3A] | 48.7 | 49.1 | -0.0736 | -0.111 | 1.05 | 2.65 |
